The results in this text go back to patent US20220096653A1, “CONJUGATE COMPRISING LIGAND AND CEACAM5 ANTIBODY FAB FRAGMENT” (ASTELLAS PHARMA INC., priority 2019, published 2022).

To fix the notation:
T1: CEACAM5 (R&D Systems, 4128-CM-050) (human, UniProt P06731 35-685)
T1 construct: Immobilised on the ELISA plate; also called human CEACAM5
T1 sequence (looked up): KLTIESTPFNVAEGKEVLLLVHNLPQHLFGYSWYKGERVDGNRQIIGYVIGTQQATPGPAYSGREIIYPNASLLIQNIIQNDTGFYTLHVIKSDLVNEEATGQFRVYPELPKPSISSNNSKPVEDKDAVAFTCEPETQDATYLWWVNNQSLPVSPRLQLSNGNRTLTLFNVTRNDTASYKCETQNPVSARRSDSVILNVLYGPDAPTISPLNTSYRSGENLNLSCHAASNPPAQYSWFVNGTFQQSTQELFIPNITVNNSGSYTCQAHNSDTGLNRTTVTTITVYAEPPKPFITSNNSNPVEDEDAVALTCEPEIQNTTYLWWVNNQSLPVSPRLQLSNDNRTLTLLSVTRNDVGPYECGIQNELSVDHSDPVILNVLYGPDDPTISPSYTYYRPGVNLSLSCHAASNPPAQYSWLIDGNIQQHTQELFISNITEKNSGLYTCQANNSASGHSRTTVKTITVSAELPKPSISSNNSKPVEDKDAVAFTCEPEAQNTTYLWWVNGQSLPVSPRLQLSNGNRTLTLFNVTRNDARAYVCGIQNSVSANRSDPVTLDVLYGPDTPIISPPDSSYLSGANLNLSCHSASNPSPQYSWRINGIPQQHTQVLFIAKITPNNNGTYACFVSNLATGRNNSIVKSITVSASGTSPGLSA

B1: (Y-S1-X)p-Fab^2 with Y Gd/4arm-DOTA, S1 spacer (n), X -Met-Gly-Lys*-Z2(#N)- (Fab, V domains shown)
VH: EVQLVESGGGLVQPGGSLRLSCAASGFNIRDTYMHWVRQAPGKGLEWVARIDPANGNSRYVPKFQGRFTISADTSRNTAYLQMNSLRAEDTAVYYCAPFGYYVSDYAMAYWGQGTLVTVSS
VL: DIQLTQSPSSLSASVGDRVTITCRAGESVDIFGVGFLHWYQQKPGKAPKLLIYRASNLESGIPSRFSGSGSRTDFTLTISSLQPEDFATYYCQQTNEDPYTFGQGTKVEIKR
modifications: labeling may sit on this chain; sites not stated; labeling portion (MW 1244) on amino groups of the Fab, sites and chain not stated; 1 per Fab by MS
notes: also called Ex-No 58; conjugate 58
B2: [DFO-C(═O)-CH2O-(1,3-Ph)-C(═O)-Gly-Tyr*-CH2-C(═O)-NH-(CH2)2-Z1(#S)]p-Fab^2 (Fab, V domains shown)
VH: B1 VH
VL: B1 VL
modifications: labeling may sit on this chain; sites not stated; labeling portion (MW 1241) bound via 2-iminothiolane-treated amino groups of the Fab, sites and chain not stated; 1 per Fab by MS; free thiols capped with 2-iodoacetamide
notes: No metal; also called Ex-No 60; Conjugate No. 60
B3: [Gd/DOTA]p-Fab^2 (Fab, V domains shown)
VH: B1 VH
VL: B1 VL
modifications: labeling may sit on this chain; sites not stated; [Gd/DOTA] (MW 542) on amino groups of the Fab, sites and chain not stated; 1-2 per Fab by MS
notes: also called Ex-No 47; conjugate 47
B4: (Y-S1-X)p-Fab^2 with Y Gd/DOTA, S1 spacer (h), X -Met-Gly-Lys*-Z2(#N)- (Fab, V domains shown)
VH: B1 VH
VL: B1 VL
modifications: labeling may sit on this chain; sites not stated; labeling portion (MW 1090) on amino groups of the Fab, sites and chain not stated; 1-2 per Fab by MS
notes: also called Ex-No 43; conjugate 43
B5: (Y-S1-X)p-Fab^2 with Y Gd/4arm-DOTA, S1 -CH2-(1,4-Ph)-NH-C(═S)-, X -Gly-(naph-Ala)-Lys*-Z2(#N)- (Fab, V domains shown)
VH: B1 VH
VL: B1 VL
modifications: labeling may sit on this chain; sites not stated; labeling portion (MW 1187) on amino groups of the Fab, sites and chain not stated; 1-2 per Fab by MS
notes: also called Ex-No 55; conjugate 55
B6: (Y-S1-X)p-Fab^2 with Y Gd/DOTA, S1 - (bond), X -Gly-Lys*-C(═S)-NH-(1,4-Ph)-NH-C(═S)- (Fab, V domains shown)
VH: B1 VH
VL: B1 VL
modifications: labeling may sit on this chain; sites not stated; labeling portion (MW 937) on amino groups of the Fab, sites and chain not stated; 1-2 per Fab by MS
notes: also called Ex-No 1; conjugate 1
B7: (Y-S1-X)p-Fab^2 with Y Gd/DOTA, S1 spacer (k), X -Met-Gly-Lys*-Z2(#N)- (Fab, V domains shown)
VH: B1 VH
VL: B1 VL
modifications: labeling may sit on this chain; sites not stated; labeling portion (MW 1296) on amino groups of the Fab, sites and chain not stated; 1-2 per Fab by MS
notes: also called Ex-No 46; conjugate 46
B8: [Gd/4arm-DOTA-CH2-(1,4-Ph)-NH-C(═S)]p-Fab^2 (Fab, V domains shown)
VH: B1 VH
VL: B1 VL
modifications: labeling may sit on this chain; sites not stated; labeling portion (MW 706) on amino groups of the Fab, sites and chain not stated; 1 per Fab by MS
notes: also called Ex-No 48; conjugate 48
B9: (Y-S1-X)p-Fab^2 with Y Gd/4arm-DOTA, S1 -CH2-(1,4-Ph)-NH-C(═S)-, X -Met-Gly-Lys*-Z2(#N)- (Fab, V domains shown)
VH: B1 VH
VL: B1 VL
modifications: labeling may sit on this chain; sites not stated; labeling portion (MW 1121) on amino groups of the Fab, sites and chain not stated; 1 per Fab by MS
notes: also called Ex-No 54; conjugate 54
B10: (Y-S1-X)p-Fab^2 with Y Gd/DOTA, S1 -NH-(CH2CH2O)3-CH2-C(═O)-, X -Met-Gly-Lys*-Z2(#N)- (Fab, V domains shown)
VH: B1 VH
VL: B1 VL
modifications: labeling may sit on this chain; sites not stated; labeling portion (MW 1145) on amino groups of the Fab, sites and chain not stated; 1-4 per Fab by MS
notes: also called Ex-No 41; conjugate 41
B11: [Gd/DOTA-NH—CH2-(1,3-Ph)-C(═O)-Asp-Gly-Lys*-Z2(#N)]p-Fab^2 (conjugate)
heavy: EVQLVESGGGLVQPGGSLRLSCAASGFNIRDTYMHWVRQAPGKGLEWVARIDPANGNSRYVPKFQGRFTISADTSRNTAYLQMNSLRAEDTAVYYCAPFGYYVSDYAMAYWGQGTLVTVSSASTKGPSVFPLAPSSKSTSGGTAALGCLVKDYFPEPVTVSWNSGALTSGVHTFPAVLQSSGLYSLSSVVTVPSSSLGTQTYICNVNHKPSNTKVDKKVEPKSCD
light: DIQLTQSPSSLSASVGDRVTITCRAGESVDIFGVGFLHWYQQKPGKAPKLLIYRASNLESGIPSRFSGSGSRTDFTLTISSLQPEDFATYYCQQTNEDPYTFGQGTKVEIKRTVAAPSVFIFPPSDEQLKSGTASVVCLLNNFYPREAKVQWKVDNALQSGNSQESVTEQDSKDSTYSLSSTLTLSKADYEKHKVYACEVTHQGLSSPVTKSFNRGEC
B12: [Gd/DOTA-NH—(CH2CH2O)3—CH2—C(═O)—NH—CH2-(1,3-Ph)-C(═O)-Gly-Lys*-Z2(#N)]p-Fab^2 (conjugate)
heavy: B11 heavy
light: B11 light
B13: [Gd/DOTA-NH—CH2-(1,3-Ph)-C(═O)-Met-Gly-Lys*-Z2(#N)]p-Fab^2 (conjugate)
heavy: B11 heavy
light: B11 light

The target of one series is T1, CEACAM5 (R&D Systems, 4128-CM-050). The series can be described thus: ELISA on immobilised CEACAM5, 4-parameter fit, duplicate.
Settings: not given
The method, then: Each anti-human CEACAM5 antibody Fab fragment conjugate prepared in Example 2 was subjected to ELISA to evaluate the binding activity thereof to CEACAM5. In the present test, a phosphate buffer (Nacalai Tesque Inc., 0.1 mol/L-Phosphate Buffer Solution (pH 7.2)) prepared to 10 mM by diluting 10-fold with distilled water was used as a solvent for an antigen immobilization liquid, and 20×PBS/Tween 20 Buffer (Thermo Fisher Scientific Inc., 28352) diluted 20-fold with distilled water was used as a wash liquid. In addition, for bovine serum albumin (BSA) used in the present test, 30% Bovine Serum Albumin solution (Sigma-Aldrich, Inc., A9576-50ML) was added in an appropriate proportion for use. CEACAM5 (R&D Systems, 4128-CM-050) was diluted with a 10 mM phosphate buffer (pH 7.2) to 0.1 μg/mL, and added to a Nunc MaxiSorp White 384 plate (Nunc, 4603272) at 30 μL per well, and the plate was incubated overnight at 4° C. for immobilization. The CEACAM5 immobilization liquid was removed by reverse centrifugation, and then blocking was carried out by adding a PBS/Tween 20 buffer containing 5.0% BSA. Thereafter, the blocking solution was removed by reverse centrifugation, a solution of each CEACAM5 antibody Fab² fragment conjugate described above or a Fab² fragment having no labeling portion (PB009-01) as a control at about 10000 ng/mL was diluted in 14 steps by 3-fold dilution using a PBS/Tween 20 buffer containing 1.0% BSA, and 30 μL was added per well and incubated at room temperature for 60 minutes. The plate was washed 3 times with a PBS/Tween 20 buffer, and Horseradish Peroxidase (HRP)-labeled goat anti-human IgG (H+L chain) antibody (MBL Life Sciences, 206) diluted 1000-fold using a PBS/Tween 20 buffer containing 5.0% BSA was added at 30 μL per well and incubated at room temperature for 30 minutes. The plate was washed 3 times with a PBS/Tween 20 buffer, and ECL Prime Western Blotting DETECTION Reagent (GE Healthcare, RPN2232) as a substrate was added at 30 μL per well. The substrate was incubated at room temperature for 15 minutes, and then a signal value thereof was measured using an Envision counter (PerkinElmer, Inc.).
The test for each antibody was carried out in duplicate, and an EC₅₀ value was calculated using a 4-parameter logistic curve model.
By EC50 is commonly meant the midpoint of the concentration-response curve. The molecule B1 registered an EC50 of 0.28 nM.

In the case of B2, the response was half-maximal at 0.18 nM (EC50).

Consider B3, for which the 50% effective concentration (EC50) was found to be 0.25 nM.

Molecule B4 yielded a 50% effective concentration (EC50) of 0.23 nM.

Regarding B5, the EC50 was 0.26 nM.

B6: the EC50 was 0.16 nM.

Take B7: the 50% effective concentration (EC50) came to 0.22 nM.

Molecule B8 had an EC50 of 0.21 nM.

Regarding B9, the response was half-maximal at 0.23 nM (EC50).

B10 had an EC50 of 0.21 nM.

Tested on in another series: not given
Assay: not given
Conditions: mouse, in vivo.
Consider B11, for which the “% of dose/tissue (amount of Gd contained per kidney)” value is 14.8 % of dose/tissue and the “Proportion of decrease (amount of Gd contained in the kidneys)” value (“Proportion of decrease” for short) stood at 52.2%.

Take B12: the “% of dose/tissue (amount of Gd contained per kidney)” value is 17.1 % of dose/tissue and the “Proportion of decrease” value was 44.8%.

Consider B13, for which the “% of dose/tissue (amount of Gd contained per kidney)” value is 15.4 % of dose/tissue and the “Proportion of decrease” value was 50.3%.
